This is an account of results in patent US20110200585A1 (GlaxoSmithKline, published 2011).

Changes are numbered by the printed parent chain.

The target of experiment [1] is T1, human IL-7Rα (CD127) on cells (human, UniProt P16871 21-459).
T1 chain: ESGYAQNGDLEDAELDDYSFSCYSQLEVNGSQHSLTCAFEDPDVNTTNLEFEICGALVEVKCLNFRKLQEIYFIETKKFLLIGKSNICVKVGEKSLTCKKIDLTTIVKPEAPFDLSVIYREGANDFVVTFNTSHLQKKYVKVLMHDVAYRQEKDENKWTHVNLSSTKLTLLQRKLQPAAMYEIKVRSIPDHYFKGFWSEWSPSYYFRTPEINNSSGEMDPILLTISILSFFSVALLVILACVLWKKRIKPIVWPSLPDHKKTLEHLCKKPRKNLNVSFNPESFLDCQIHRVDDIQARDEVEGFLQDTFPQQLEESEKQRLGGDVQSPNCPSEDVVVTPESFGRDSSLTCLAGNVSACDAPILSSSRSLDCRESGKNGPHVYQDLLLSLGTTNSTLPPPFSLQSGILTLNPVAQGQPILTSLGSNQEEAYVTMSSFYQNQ
Description: cell-based or functional assay.

Another experiment has as its target Human FcRn (human, UniProt P55899 24-297; P61769 21-119, limits assumed). In words: SPR, ProteOn XPR36; antibody amine-coupled to GLM chip, FcRn 8-2048 nM as analyte, equilibrium fit, pH 6.0. For orientation: Surface plasmon resonance follows binding to a sensor surface in real time, without labels.
Another experiment addresses Cyno FcRn (cyno, UniProt Q8SPV9 24-297; Q8SPW0 21-119, limits assumed). Described as above.
A further experiment has as its target T2, Mouse FcRn (mouse, UniProt Q61559 22-297; P01887 21-119, limits assumed).
T2 sequence (looked up) 1: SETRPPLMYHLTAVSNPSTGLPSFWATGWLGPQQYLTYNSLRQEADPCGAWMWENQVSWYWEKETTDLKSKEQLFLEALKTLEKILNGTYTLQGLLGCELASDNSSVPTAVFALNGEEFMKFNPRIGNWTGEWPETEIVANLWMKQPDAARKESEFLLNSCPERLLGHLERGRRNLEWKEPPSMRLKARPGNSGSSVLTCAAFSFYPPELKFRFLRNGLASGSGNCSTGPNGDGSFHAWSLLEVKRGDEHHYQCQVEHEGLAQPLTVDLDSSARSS
T2 sequence (looked up) 2: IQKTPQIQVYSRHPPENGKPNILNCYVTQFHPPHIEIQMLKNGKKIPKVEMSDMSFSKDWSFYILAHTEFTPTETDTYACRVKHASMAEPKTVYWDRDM
The experiment is described as above.

The target in the next experiment is T3, rat FcRn (rat, UniProt P13599 23-298; P07151 21-119, limits assumed).
T3 sequence (looked up) 1: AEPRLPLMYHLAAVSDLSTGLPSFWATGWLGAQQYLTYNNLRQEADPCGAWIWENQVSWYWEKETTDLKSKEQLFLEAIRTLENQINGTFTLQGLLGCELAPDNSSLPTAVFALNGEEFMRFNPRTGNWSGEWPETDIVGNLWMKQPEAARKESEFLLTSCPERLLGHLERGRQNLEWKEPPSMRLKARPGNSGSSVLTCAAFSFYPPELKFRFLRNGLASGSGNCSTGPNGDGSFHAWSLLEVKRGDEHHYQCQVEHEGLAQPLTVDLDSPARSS
T3 sequence (looked up) 2: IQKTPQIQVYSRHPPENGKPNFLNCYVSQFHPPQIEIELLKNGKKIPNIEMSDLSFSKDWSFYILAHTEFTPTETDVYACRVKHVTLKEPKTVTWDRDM
The experiment is described as above.

For the next experiment, the target named is T4, Fcγ2a (Arg) (UniProt P12318 34-217).
T4 construct: also called Fc Gamma IIa, Arg form
T4 sequence (looked up): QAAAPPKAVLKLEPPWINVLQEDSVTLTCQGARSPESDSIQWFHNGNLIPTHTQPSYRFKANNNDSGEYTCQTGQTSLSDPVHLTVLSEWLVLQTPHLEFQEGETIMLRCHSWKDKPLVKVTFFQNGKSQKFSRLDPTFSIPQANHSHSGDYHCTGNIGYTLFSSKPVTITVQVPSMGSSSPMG
In words: SPR, ProteOn XPR36; antibody amine-coupled to GLM chip, receptor 8-2048 nM as analyte, equilibrium fit, pH 7.4.

Experiment [2] has as its target T5, Fcγ2a (His) (UniProt P12318 34-217).
T5 construct: also called Fc Gamma IIa, His form
T5 sequence (looked up): T4 sequence (looked up) with R134H
Described as above.
Description: (§1) The work was carried out on the ProteOn XPR36 surface plasmon resonance machine (BioRad). The antibodies to be tested were coupled to a GLM biosensor chip by primary amine coupling. […] All binding sensograms were double referenced with a 0 nM injection (i.e. buffer alone). The data was fitted to the Equilibrium model inherent to the ProteOn analysis software.

The target in experiment [3] is T6, Fcγ3a (Phe) (UniProt P08637 17-208).
T6 construct: also called Fc Gamma IIIa, Phe form
T6 sequence (P08637 17-208): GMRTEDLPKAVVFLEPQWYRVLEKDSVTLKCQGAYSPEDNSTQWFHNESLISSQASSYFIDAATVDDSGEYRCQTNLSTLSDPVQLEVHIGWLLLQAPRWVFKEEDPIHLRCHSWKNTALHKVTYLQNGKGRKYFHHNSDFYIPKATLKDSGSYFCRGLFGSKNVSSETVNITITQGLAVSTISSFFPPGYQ
The description is as above.
Description: as §1

The target of experiment [4] is T7, Fcγ (Val) (UniProt P08637 17-208). The description is as above.
T7 sequence (P08637 17-208 F176V): as the sequence (P08637 17-208) above, with F160V counted along it
Description: as §1
The next experiment addresses T8, Fcγ1 (UniProt P12314 16-288).
T8 construct: also called Fc Gamma I
The description is as above.

Experiment [5] addresses T5, Fcγ2a (His). In words: SPR, ProteOn XPR36; antibody amine-coupled to GLM chip, receptor as analyte.
Description: as §1
Experiment [6] addresses T6, Fcγ3a (Phe). The description is as above.
Description: as §1
In experiment [7] the target is T7, Fcγ (Val). The experiment is described as above.
Description: as §1

Human FcRn, sequence (P55899 24-297 limits assumed, chain 1 of 2): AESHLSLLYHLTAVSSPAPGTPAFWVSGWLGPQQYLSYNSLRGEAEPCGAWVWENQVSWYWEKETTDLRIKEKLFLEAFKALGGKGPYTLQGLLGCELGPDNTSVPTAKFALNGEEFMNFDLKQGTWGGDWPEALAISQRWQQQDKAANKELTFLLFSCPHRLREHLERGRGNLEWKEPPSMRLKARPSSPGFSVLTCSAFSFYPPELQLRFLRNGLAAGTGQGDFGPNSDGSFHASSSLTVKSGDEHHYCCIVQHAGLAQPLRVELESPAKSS
Human FcRn, sequence (P61769 21-119 limits assumed, chain 2 of 2): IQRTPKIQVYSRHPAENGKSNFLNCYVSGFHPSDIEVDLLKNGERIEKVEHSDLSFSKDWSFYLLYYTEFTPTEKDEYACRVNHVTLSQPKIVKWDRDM
T8 sequence (P12314 16-288): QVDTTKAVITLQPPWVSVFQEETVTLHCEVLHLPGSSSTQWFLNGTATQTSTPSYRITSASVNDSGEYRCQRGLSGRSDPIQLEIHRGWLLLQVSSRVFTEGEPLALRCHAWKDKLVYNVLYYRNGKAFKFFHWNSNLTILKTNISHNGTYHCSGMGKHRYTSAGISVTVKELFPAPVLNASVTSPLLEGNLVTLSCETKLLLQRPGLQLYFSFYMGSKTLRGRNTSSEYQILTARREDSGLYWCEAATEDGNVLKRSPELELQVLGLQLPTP
Description for Cyno FcRn: as §1
Description for Fcγ1: as §1
Description for Fcγ2a (Arg): as §1
Description for Human FcRn: as §1
Description for Mouse FcRn: as §1
Description for rat FcRn: as §1

B1: parental 1A11 monoclonal antibody (antibody, V domains shown)
VH: EVQLQQSGPELLKPGASMKISCKASGYSFTGYTMNWVKQSHGKNLEWIGLINPYNGVTSYNQKFKGKATLTVAKSSSTAYMELLSLTSEDSAVYYCARGDGNYWYFDVWGAGTTVTVSS
VL: EIVLTQSPAITAASLGQKVTITCSASSSVTYMHWYQQKSGTSPKPWIYEISKLASGVPVRFSGSGSGTSYSLTISSMEAEDAAIYYCQEWNYPYTFGGGTKLEIK
With B1, the “IC50 of inhibition of IL-7 induced STAT5 phosphorylation in human PBMC (flow cytometry)” value in experiment [1] was found to be 0.088 µg/mL.

B2: 1A11 H3L4 (antibody, IgG1)
heavy: not shown
light: EIVLTQSPATLSLSPGERATLSCSASSSVTYMHWYQQKPGQAPRPLIYEISKLASGIPARFSGSGSGTDFTLTISSLEPEDFAVYYCQEWNYPYTFGGGTKVEIKRTVAAPSVFIFPPSDEQLKSGTASVVCLLNNFYPREAKVQWKVDNALQSGNSQESVTEQDSKDSTYSLSSTLTLSKADYEKHKVYACEVTHQGLSSPVTKSFNRGEC
notes: Humanised IgG1 kappa; also called BPC1142; anti-IL7R 1A11 H3L4; copies: 2 + 2
As for B2, the dissociation constant Kd in the experiment with Human FcRn amounted to 183 nM; with Cyno FcRn, 210 nM; with Mouse FcRn, 192 nM; with rat FcRn, 145 nM; with Fcγ2a (Arg), 1250 nM; with Fcγ2a (His) [2] it was 1040 nM. For the same molecule, the Kd with Fcγ3a (Phe) [3] is 990 nM; in the experiment with Fcγ (Val) [4], 319 nM; in the experiment with Fcγ1, 21.4 nM.

B3: 1A11 H3L4Fc (antibody)
heavy: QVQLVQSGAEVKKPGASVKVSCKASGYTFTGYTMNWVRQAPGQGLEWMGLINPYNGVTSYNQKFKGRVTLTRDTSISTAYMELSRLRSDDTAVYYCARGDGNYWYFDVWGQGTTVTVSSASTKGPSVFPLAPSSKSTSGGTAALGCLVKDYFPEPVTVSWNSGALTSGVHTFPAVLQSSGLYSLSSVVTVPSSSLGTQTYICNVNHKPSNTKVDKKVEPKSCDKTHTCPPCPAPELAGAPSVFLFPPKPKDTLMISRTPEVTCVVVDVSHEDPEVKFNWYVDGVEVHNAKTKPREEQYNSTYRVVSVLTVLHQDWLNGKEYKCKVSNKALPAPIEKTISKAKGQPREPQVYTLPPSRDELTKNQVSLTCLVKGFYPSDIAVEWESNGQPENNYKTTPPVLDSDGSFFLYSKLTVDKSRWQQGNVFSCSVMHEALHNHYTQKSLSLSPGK
light: B2 light
notes: also called Fc-disabled anti-IL7R mAb; Fc-disabled 1A11 H3L4; copies: 2 + 2
B3: the binding result in the experiment with Fcγ2a (His) [5], with Fcγ3a (Phe) [6] and with Fcγ (Val) [7] was “no binding (tested: up to 2048 nM receptor)” in each case. In addition, the dissociation constant Kd in the experiment with Human FcRn worked out at 158 nM; with Cyno FcRn it was 248 nM; with Mouse FcRn, 207 nM; with rat FcRn it was 163 nM.

Usually Kd stands for the equilibrium constant for the complex coming apart. A high value points to lower affinity.
